Reference: patent US20240199757A1

T1: human NT5E expressed on MDA-MB-231 cells (human) (UniProt P21589)
T1 sequence (looked up): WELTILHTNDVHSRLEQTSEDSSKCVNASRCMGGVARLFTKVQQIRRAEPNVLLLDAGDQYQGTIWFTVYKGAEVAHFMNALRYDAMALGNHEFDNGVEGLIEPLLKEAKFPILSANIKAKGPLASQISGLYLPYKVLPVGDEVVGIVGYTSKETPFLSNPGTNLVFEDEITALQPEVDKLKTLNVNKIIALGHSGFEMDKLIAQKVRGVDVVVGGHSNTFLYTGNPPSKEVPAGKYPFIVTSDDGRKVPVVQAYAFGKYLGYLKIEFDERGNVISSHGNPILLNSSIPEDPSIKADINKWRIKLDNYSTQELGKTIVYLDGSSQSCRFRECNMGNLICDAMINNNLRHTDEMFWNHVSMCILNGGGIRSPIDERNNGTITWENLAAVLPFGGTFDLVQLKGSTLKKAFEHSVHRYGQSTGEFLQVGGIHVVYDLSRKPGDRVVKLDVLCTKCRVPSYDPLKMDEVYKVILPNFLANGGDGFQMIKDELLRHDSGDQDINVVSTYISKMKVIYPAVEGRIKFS

T2: murine NT5E expressed on 4T1 cells (murine) (UniProt Q61503)
T2 sequence (looked up): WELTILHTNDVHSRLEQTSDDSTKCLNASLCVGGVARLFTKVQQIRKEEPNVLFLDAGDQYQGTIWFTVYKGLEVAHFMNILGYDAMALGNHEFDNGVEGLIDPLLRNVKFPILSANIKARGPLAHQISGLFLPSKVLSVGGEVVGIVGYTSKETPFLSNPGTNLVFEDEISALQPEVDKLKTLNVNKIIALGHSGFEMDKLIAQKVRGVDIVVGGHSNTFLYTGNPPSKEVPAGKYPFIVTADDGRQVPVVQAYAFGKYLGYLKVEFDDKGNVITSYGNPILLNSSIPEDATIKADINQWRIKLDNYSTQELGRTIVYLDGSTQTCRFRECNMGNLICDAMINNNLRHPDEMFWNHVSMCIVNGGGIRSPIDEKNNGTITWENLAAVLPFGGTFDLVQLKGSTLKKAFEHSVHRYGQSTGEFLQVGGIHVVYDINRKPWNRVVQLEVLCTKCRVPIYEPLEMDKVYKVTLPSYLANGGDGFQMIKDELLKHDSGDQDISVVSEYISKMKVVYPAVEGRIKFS

B1: 1789 AM39 IgG (antibody, V domains shown)
VH: EVQLVESGGGLVQPGGSLRLSCAASGFNVSYSSIHWVRQAPGKGLEWVASIRGAGSDTRYADSVKGRFTISADTSKNTAYLQMNSLRAEDTAVYYCARNYWGWYPFYYFAFDYWGQGTLVTVSS
VL: DIQMTQSPSSLSASVGDRVTITCRASQSVSSAVAWYQQKPGKAPKLLIYSASSLYSGVPSRFSGSRSGTDFTLTISSLQPEDFATYYCQQGWDYPITFGQGTKVEIKR
B2: 1789 Fab (Fab, V domains shown)
VH: EVQLVESGGGLVQPGGSLRLSCAASGFNVSYSSIHWVRQAPGKGLEWVASISSSSGYTYYADSVKGRFTISADTSKNTAYLQMNSLRAEDTAVYYCARNYWGWYPFYYFAFDYWGQGTLVTV
VL: DIQMTQSPSSLSASVGDRVTITCRASQSVSSAVAWYQQKPGKAPKLLIYSASSLYSGVPSRFSGSRSGTDFTLTISSLQPEDFATYYCQQGWDYPITFGQGTKVEIKR
B3: 1789 AM32 IgG (antibody, V domains shown)
VH: EVQLVESGGGLVQPGGSLRLSCAASGFNVSYSSIHWVRQAPGKGLEWVARIRGNEGDTYYADSVKGRFTISADTSKNTAYLQMNSLRAEDTAVYYCARNYWGWYPFYYFAFDYWGQGTLVTVSS
VL: DIQMTQSPSSLSASVGDRVTITCRASQSVSSAVAWYQQKPGKAPKLLIYSASSLYSGVPSRFSGSRSGTDFTLTISSLQPEDFATYYCQQGWDYPITFGQGTKVEIKR
B4: 1789 AM42 IgG (antibody, V domains shown)
VH: EVQLVESGGGLVQPGGSLRLSCAASGFNVSYSSIHWVRQAPGKGLEWVAKIRGGHQDTHYADSVKGRFTISADTSKNTAYLQMNSLRAEDTAVYYCARNYWGWYPFYYFAFDYWGQGTLVTVSS
VL: DIQMTQSPSSLSASVGDRVTITCRASQSVSSAVAWYQQKPGKAPKLLIYSASSLYSGVPSRFSGSRSGTDFTLTISSLQPEDFATYYCQQGWDYPITFGQGTKVEIKR

Experiments:
[1] = molecular target: T1, human NT5E expressed on MDA-MB-231 cells (human); assay: cell-based or functional assay
[2] = molecular target: T2, murine NT5E expressed on 4T1 cells (murine); assay: cell-based or functional assay
[3] = molecular target: hNT5EFF (F417A/F500A mutant of hNT5E) (human); assay: DSF thermal shift, 1.5-fold molar excess of Fab, no ATP (hNT5EFF alone 47° C.)
[4] = molecular target: hNT5EFF (F417A/F500A mutant of hNT5E) (human); assay: DSF thermal shift, 1.5-fold molar excess of Fab, 1 mM ATP (hNT5EFF alone 47° C.)

| Binder | IC50 of NT5E activity on MDA-MB-231 cells, no ATP [1] [nM] | IC50 of NT5E activity on MDA-MB-231 cells, with ATP [1] [nM] | IC50 of NT5E activity on 4T1 cells, with ATP [2] [nM] | TM of NT5E in the presence of the Fab [3] [° C.] | TM of NT5E in the presence of the Fab [4] [° C.] |
| --- | --- | --- | --- | --- | --- |
| B1 | 6.9 | 2.5 | 12.7 |  |  |
| B2 |  |  |  | 47 | 46 |
| B3 | 5.6 | 2.3 | 9.1 |  |  |
| B4 | 5.4 | 1.9 | 8.8 |  |  |
